Among the data in patent US20200325230A1 (CURIA IP, published 2020) are EC50, IC50 and Kd values, retold here.

Residue numbers refer to the chain shown, from its start. Names and notes keep the numbering of the source.

The target of assay [1] is T1, cynomolgus BTLA expressed on HEK-293 cells (cynomolgus, UniProt A0A2K5W7M7 31-289).
T1 construct: whole, on cells; also called Cyno BTLA
Description: flow cytometry on HEK 293 cells expressing BTLA (MFI).

For assay [2], the target named is T2, human BTLA expressed on HEK-293 cells (human, UniProt Q7Z6A9 31-289).
T2 construct: whole, on cells
The description is as above.

For a further assay, the target named is T3, human BTLA(ECD)-HIS (human, UniProt Q7Z6A9 31-157).
T3 construct: extracellular domain; also called recombinant BTLA; not shown: HIS tag
The assay is described as follows: ELISA, coated BTLA(ECD)-HIS, chemiluminescence (RLU).

A further assay concerns the target T4, cynomolgus BTLA(ECD)-HIS (cynomolgus, UniProt A0A2K5W7M7 31-157).
T4 construct: extracellular domain; also called Cyno BTLA; not shown: HIS tag
Described as above.

Another assay deals with T5, human BTLA-human Fc (human, UniProt Q7Z6A9 31-157).
T5 construct: not shown: human Fc
The assay is described as follows: ELISA, inhibition of BTLA-human Fc binding to coated human HVEM-ratIgG2a.

The target of a further assay is recombinant human BTLA (human, UniProt Q7Z6A9 31-157, limits assumed). Description: Bio-Layer Interferometry (Octet), antibody captured by anti-human-Fc (AHC), BTLA in solution, 1:1 fit. (In general: BLI is a label-free optical method that tracks binding on a fibre tip over time.)
The target of assay [3] is T6, cynomolgus BTLA (analyte of Bio-Layer Interferometry) (cynomolgus, UniProt A0A2K5W7M7 31-157).
T6 construct: also called Cyno BTLA
The assay is described as above.

Another assay addresses T7, cynoBTLA-human Fc (cynomolgus, UniProt A0A2K5W7M7 31-157).
T7 construct: also called cynomolgus BTLA; not shown: human Fc
The assay is described as follows: ELISA, inhibition of cynoBTLA-human Fc binding to coated human HVEM-ratIgG2a.

T6 sequence (A0A2K5W7M7 entry or part of it): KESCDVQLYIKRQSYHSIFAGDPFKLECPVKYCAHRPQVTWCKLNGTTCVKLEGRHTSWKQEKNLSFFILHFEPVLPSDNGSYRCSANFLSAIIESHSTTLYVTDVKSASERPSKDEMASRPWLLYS
T1 sequence (A0A2K5W7M7 entry or part of it): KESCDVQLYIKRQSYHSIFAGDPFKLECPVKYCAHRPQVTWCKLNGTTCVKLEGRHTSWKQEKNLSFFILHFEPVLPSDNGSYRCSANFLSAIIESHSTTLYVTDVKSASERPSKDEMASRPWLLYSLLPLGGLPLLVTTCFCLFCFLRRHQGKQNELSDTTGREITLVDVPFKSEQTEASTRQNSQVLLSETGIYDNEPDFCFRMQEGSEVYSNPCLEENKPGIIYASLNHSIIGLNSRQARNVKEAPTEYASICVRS

B1: anti-BTLA antibody 16-I20A (antibody, V domains shown)
VH: QVQLQESGPGLVKPSETLSLTCTVSGGSISYYYWSWIRQPPGTGLEWIGYIYYSGSTKYNPSLKRRVTISVDTSKNQFSLKLSSVTAADTAVYYCARIRGDSYGWDFDYWGQGTLVTVSS
VL: EIVMTQSPATLSLSPGERATLSCRASQSISNNYLFWYQQKPGQAPRLLIYGASTRATGIPARFSGSGSGTDFTLTISSLQPEDFAVYYCQQDYNFPLTFGGGTKVEIK
notes: also called 16420A
As a reminder, the EC50 is the concentration that produces a half-maximal response. A lower EC50 goes with a more potent agent. The term IC50 denotes the midpoint of a concentration-inhibition curve. A high value points to weaker potency in that assay. What is called Kd is the equilibrium constant for the complex coming apart. On to B1, for which the EC50 was determined as 6.9 nM in assay [1], 5 nM in assay [2], 0.7 nM with human BTLA(ECD)-HIS and 0.8 nM in the assay with cynomolgus BTLA(ECD)-HIS. Moreover, the IC50 came out at 2.9 nM with human BTLA-human Fc and 2.5 nM in the assay with cynoBTLA-human Fc. The Kd in the assay with recombinant human BTLA was 14.9 nM; in assay [3], 16.6 nM.

B2: anti-BTLA antibody 8-M23A (antibody, V domains shown)
VH: QVQLQESGPGLVKPSETLSLTCTVSGGSISSYYWSWIRQPPGKGLEWIGYIYYSGSTNYNPSLKSRITISVDTSKNQFSLKLSSVTAADTAVYYCARVILYSSGWSFDYWGQGTLVTVSS
VL: B1 VL with I29V, N31S, N32S, F35S, F95L
In turn, B2 yielded an EC50 with human BTLA(ECD)-HIS of 0.8 nM.

B3: anti-BTLA antibody 16-H16A (antibody, V domains shown)
VH: QLQLQESGPGLVKPSETLSLTCTVSGDSISSSGYYWGWIRQPPGKGLEWIGSIYYSGSTHYNPSLKSRVTISVDSSKSQFSLKLSSVTAADTAVYCCARHKVDSSGWPLDYWGQGTLVTVSS
VL: B1 VL with N31S, N32S, Y33C, F35S, G51D, A52T, F95L
Turning to B3, the EC50 in assay [1] came out at 4.4 nM; in assay [2] it was 4.7 nM; in the assay with human BTLA(ECD)-HIS, 0.9 nM; with cynomolgus BTLA(ECD)-HIS it was 1.9 nM. Also, the figures for the concentration for half-maximal inhibition (IC50) with human BTLA-human Fc and with cynoBTLA-human Fc were 3 nM and 2.3 nM, respectively. Besides, the Kd with recombinant human BTLA amounted to 13.9 nM; in assay [3] it was 4.1 nM.

B4: anti-BTLA antibody 13-F7A (antibody, V domains shown)
VH: EVQLLESGGGLVQPGGSLRLSCAASGFTSSSYGMSWVRQAPGKGLEWVSGISGSGGGTYYADSVKGRFTISRDNSKNTLYLQMNSLRAEDTAVYYCAKGDYYGSGSYPLFDYWGQGTLVTVSS
VL: AIQLTQSPSSLSASVGDRVTITCRASQDISSALAWYQQKPGKAPKLLISDASSLESGVPSRFSGSGSGTDFTLTISSLQPEDFATFYCQQFNNYPPTFGPGTKVDIK
B4: the EC50 in assay [1] was 2.6 nM; in assay [2] it was 1.5 nM; in the assay with human BTLA(ECD)-HIS it was 1 nM; with cynomolgus BTLA(ECD)-HIS it was 1 nM. Besides, the IC50 with human BTLA-human Fc is 2.5 nM; with cynoBTLA-human Fc it was 1.8 nM. The Kd in the assay with recombinant human BTLA was determined as 5.4 nM; in assay [3], 3.9 nM.

B5: anti-BTLA antibody 12-I8A (antibody, V domains shown)
VH: QVQLVESGGGVVQPGRSLRLSCAASGFTFSNYGMHWVRQAPGKGLEWVAVIWYNGSNKYYADSVKGRFTISRDNSKNTLYLQMNSLRAEDTAVYYCARDDVVRYFDWPLDYWGQGTLVTVSS
VL: AIQMTQSPSSLSASVGDRVTITCRASQGIRNDLGWYQQKPGKAPKVLIYAASSLQSGVPSRFSGSGSGTDFTLTISSLQPEDFATYYCLQDYNYPWTFGQGTKVEIK
notes: also called 12-IBA
Regarding B5, the EC50 in assay [1] was 5 nM; in assay [2] it was 2.9 nM; with human BTLA(ECD)-HIS it was 1.4 nM; with cynomolgus BTLA(ECD)-HIS, 4.2 nM. In addition, the values for the IC50 with human BTLA-human Fc and with cynoBTLA-human Fc were 4.4 nM and 4.6 nM, respectively. The Kd came to 25.2 nM with recombinant human BTLA and 23.2 nM in assay [3].
